Data: patent US20090318350A1, “PAN-HER ANTAGONISTS AND METHODS OF USE” (priority 2006, published 2009)
Where two headings read alike, the source gives them in different places.

How the values were obtained:
HER5 cells = conditions: cited from earlier work; for stimulation of cell proliferation in EGFR-dependent HER5 cells: isolated ligand variants, previously demonstrated
MCF-7 cells = conditions: cited from earlier work
HER3 receptor = assay: Phage ELISA whole-cell binding, T47D cells; design: species or system human; conditions: A431 (EGFR) versus T47D (HER3) binding, phage fusion
Procedure: (§1) A431 cells for EGFR binding or T47D cells for HER3 binding were grown as monolayers in tissue culture flasks in media containing fetal bovine serum. Cells were trypsinized, neutralized with growth medium, washed twice with DPBS and resuspended in ice-cold PBS-Glu-T. 105 cells were transferred to 96 well plates and incubated on ice for 1 hour in the presence of varied concentrations of phage. Cells were centrifuged and washed 5× with PBS-T then incubated for one hour at room temperature with anti-M13 pVIII coat protein antibody conjugated with horseradish peroxidase (HRP). Cells again centrifuged and washed 5× with PGS-T. Color developed with TMP followed by H2SO4. Cells pelleted and supernatant transferred to optically transparent plate for measurement of absorbance at 450 nm.
(§2) Theoretical estimates were also performed. “N.D.” indicates not determined. […]
Human ductal carcinoma cells were obtained from ATCC. They were maintained in RPMI 1640 medium with 2 mM L-glutamine adjusted to contain 1.5 g/L sodium bicarbonate, 4.5 g/L glucose, 10 mM HEPES, and 1.0 mM sodium pyruvate and supplemented with 0.2 Units/ml bovine insulin, 90%; fetal bovine serum, 10%. […]
(§3) The phage fusion ligand variants were then evaluated for binding using the assay described herein in both A431 cells (to investigate EGFR binding) and T47D cells (to investigate HER3 receptor binding) and EC50s were calculated.

EGFR = biological target: T1, EGFR (Homo sapiens, UniProt P00533); assay: Phage ELISA whole-cell binding, A431 cells; conditions: for Calculated binding (EC50) in A431 cells / binding properties relative to WVS and WVS-R41DL47G: phage fusion; for binding properties relative to WVS and WVS-R41DL47G / ligand binding, from the binding curves: A431 cells; for Calculated binding (EC50): A431 whole cell suspension, Abs450, Table 10; for Calculated binding (EC50) / ligand binding, from the binding curves: phage-displayed ligand
T1 construct: host or cells: A431 human epidermoid carcinoma cells, whole-cell suspension
Procedure: as §1, with “nm. […]” for “nm.”
The human epidermoid carcinoma line, A431, were obtained from ATCC. Stock cultures of A-431 were propagated in DMEM medium containing 10% fetal bovine serum. A431 cells were used to evaluate EGFR receptor binding.
as §3

Her-3 [1] = biological target: T2, Her-3 (Homo sapiens, UniProt P21860); assay: Phage ELISA whole-cell binding, T47D cells; design: host or cells: T47D human ductal carcinoma cells, whole-cell suspension; conditions: for Calculated binding (EC50) in T47D cells / binding properties relative to WVS and WVS-R41DL47G: phage fusion
T2 sequence (P21860 20-1342): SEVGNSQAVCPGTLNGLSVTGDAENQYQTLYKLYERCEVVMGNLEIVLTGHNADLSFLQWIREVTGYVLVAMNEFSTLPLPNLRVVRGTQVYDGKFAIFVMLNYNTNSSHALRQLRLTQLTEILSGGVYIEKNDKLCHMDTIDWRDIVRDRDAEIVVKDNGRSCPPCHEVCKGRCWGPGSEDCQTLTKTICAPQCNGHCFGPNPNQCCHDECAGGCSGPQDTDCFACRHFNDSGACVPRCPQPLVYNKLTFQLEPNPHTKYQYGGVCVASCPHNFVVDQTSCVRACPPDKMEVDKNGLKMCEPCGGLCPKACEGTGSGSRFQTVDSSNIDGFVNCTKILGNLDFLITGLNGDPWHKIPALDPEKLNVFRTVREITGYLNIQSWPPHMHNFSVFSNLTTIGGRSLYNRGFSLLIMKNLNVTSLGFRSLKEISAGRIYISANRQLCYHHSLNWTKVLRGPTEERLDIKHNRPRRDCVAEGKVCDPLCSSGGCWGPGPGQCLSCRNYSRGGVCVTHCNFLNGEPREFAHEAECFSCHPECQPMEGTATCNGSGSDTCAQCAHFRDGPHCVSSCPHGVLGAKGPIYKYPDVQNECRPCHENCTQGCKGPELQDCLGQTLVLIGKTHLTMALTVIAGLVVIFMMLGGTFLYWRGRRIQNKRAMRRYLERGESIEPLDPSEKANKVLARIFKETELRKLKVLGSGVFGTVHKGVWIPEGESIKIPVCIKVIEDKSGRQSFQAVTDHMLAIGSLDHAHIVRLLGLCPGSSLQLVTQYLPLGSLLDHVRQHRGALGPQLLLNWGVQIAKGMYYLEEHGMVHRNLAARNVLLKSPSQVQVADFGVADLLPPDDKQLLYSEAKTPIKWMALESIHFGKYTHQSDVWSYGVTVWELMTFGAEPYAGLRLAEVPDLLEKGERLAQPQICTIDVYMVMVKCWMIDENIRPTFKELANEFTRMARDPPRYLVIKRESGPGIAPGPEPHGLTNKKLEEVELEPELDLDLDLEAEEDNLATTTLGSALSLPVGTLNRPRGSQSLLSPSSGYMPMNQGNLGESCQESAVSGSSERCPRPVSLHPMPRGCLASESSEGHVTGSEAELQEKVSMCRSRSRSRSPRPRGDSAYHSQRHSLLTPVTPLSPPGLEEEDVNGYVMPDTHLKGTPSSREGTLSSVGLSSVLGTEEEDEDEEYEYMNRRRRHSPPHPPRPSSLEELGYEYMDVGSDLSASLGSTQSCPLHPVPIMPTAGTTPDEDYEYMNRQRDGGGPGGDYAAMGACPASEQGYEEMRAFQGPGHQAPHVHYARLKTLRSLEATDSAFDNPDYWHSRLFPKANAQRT
Procedure: as §1, §2
Human ductal carcinoma cells were obtained from ATCC. They were maintained in RPMI 1640 medium with 2 mM L-glutamine adjusted to contain 1.5 g/L sodium bicarbonate, 4.5 g/L glucose, 10 mM HEPES, and 1.0 mM sodium pyruvate and supplemented with 0.2 Units/ml bovine insulin, 90%; fetal bovine serum, 10%. T47-D cells were used to evaluate HER3 receptor binding.
as §3

Her-3 [2] = biological target: T2, Her-3; conditions: particularly for Her-3; cited from earlier work
[3] = isolated ligand variants, previously demonstrated
[4] = T47D whole cell suspension, phage-displayed ligand, Abs450

| Substance | stimulation of cell proliferation in EGFR-dependent HER5 cells (HER5 cells) | Calculated binding (EC50) in A431 cells (EGFR; Table 14, first half loop) | Calculated binding (EC50) in T47D cells (Her-3 [1]; Table 14, first half loop) | Calculated binding (EC50) in A431 cells (EGFR; Table 15, second half loop) | Calculated binding (EC50) in T47D cells (Her-3 [1]; Table 15, second half loop) | Estimated binding (EC50) (Her-3 [1]; [4]) | Calculated binding (EC50) (EGFR) | further results |
| --- | --- | --- | --- | --- | --- | --- | --- | --- |
| BiR: heregulin/EGF chimera, amino terminal residues NSDSE replaced with heregulin SHLVK; SEQ ID NO 2 (SHLVKCPLSHDGYCLHDGVCMYIEALDKYACNCVVGYIGERCQYRDLKWWELR; Ligand Variant) | capable of stimulating cell proliferation |  |  |  |  |  |  | stimulation of HER5 cells (HER5 cells; stated as known): can be stimulated; stimulation of MCF-7 cells (MCF-7 cells; [3]): very weakly; stimulation of MCF-7 cells (MCF-7 cells; stated as known): can be stimulated |
| D4-2: WVS background, B-loop YRVKTLDKYA (first half YRVKT); SEQ ID 43 (Ligand Variant) |  | 3.6 × 10^10 phage titer/mL | 8.6 × 10^10 phage titer/mL |  |  |  |  | receptor binding selectivity (HER3 receptor): bind only the HER3 receptor |
| D4: WVS background, B-loop MYIEAYRVKT (second half YRVKT); SEQ ID 42 (Ligand Variant) |  |  |  | 3.9 × 10^9 phage titer/mL | 2.9 × 10^10 phage titer/mL |  |  | binding properties relative to WVS and WVS-R41DL47G (EGFR): intermediate binding properties; binding properties relative to WVS and WVS-R41DL47G (Her-3 [1]; T47D cells): intermediate binding properties |
| E8: WVS background, B-loop MYIEATKYRG (second half TKYRG); SEQ ID 44 (Ligand Variant) |  |  |  | 5.2 × 10^9 phage titer/mL | 3.1 × 10^10 phage titer/mL |  |  | binding properties relative to WVS and WVS-R41DL47G (EGFR): intermediate binding properties; binding properties relative to WVS and WVS-R41DL47G (Her-3 [1]; T47D cells): intermediate binding properties |
| T1E: EGF/TGFα chimera, amino terminal residues NSDSE replaced with VVSHFND from TGF-α; SEQ ID NO 4 (VVSHFNDCPLSHDGYCLHDGVCMYIEALDKYACNCVVGYIGERCQYRDLKWWELR; Ligand Variant) [reference compound] | capable of stimulating cell proliferation |  |  |  |  | 1 × 10^10 phage titer/mL |  |  |
| WVS: EGF variant, amino acids 2 and 3 replaced with W and V, N-terminus NWVSE; SEQ ID NO 3 (NWVSECPLSHDGYCLHDGVCMYIEALDKYACNCVVGYIGERCQYRDLKWWELR; Ligand Variant) [reference compound] | capable of stimulating cell proliferation | 1.9 × 10^9 phage titer/mL | 7.5 × 10^9 phage titer/mL | 1.4 × 10^9 phage titer/mL | 7.6 × 10^9 phage titer/mL | 9 × 10^8 phage titer/mL | 6.6 × 10^8 phage titer/mL | stimulation of MCF-7 cells (MCF-7 cells; [3]): stimulated most effectively; binding affinity (Her-3 [2]): high binding affinity; Calculated binding (EC50) (Her-3 [1]; T47D whole cell suspension, phage-displayed ligand, Abs450, Table 9): 9.8 × 10^9 phage titer/mL |
| wvs-L47G: WVS background, L at position 47 replaced by G; SEQ ID NO 7 (NWVSECPLSHDGYCLHDGVCMYIEALDKYACNCVVGYIGERCQYRDGKWWELR; Ligand Variant) |  |  |  |  |  |  | 6.6 × 10^10 phage titer/mL |  |
| wvs-R41D: WVS background, R at position 41 replaced by D; SEQ ID NO 6 (NWVSECPLSHDGYCLHDGVCMYIEALDKYACNCVVGYIGEDCQYRDLKWWELR; Ligand Variant) |  |  |  |  |  | >1 × 10^12 phage titer/mL | 5.8 × 10^11 phage titer/mL | ligand binding, from the binding curves (EGFR): greatly attenuated |
| wvs-R41DL47G: WVS background, R at position 41 replaced by D, L at position 47 replaced by G; SEQ ID NO 5 (NWVSECPLSHDGYCLHDGVCMYIEALDKYACNCVVGYIGEDCQYRDGKWWELR; Ligand Variant) |  | 2.8 × 10^10 phage titer/mL | 1.1 × 10^12 phage titer/mL | 4.0 × 10^10 phage titer/mL | 2.6 × 10^11 phage titer/mL |  | 4.8 × 10^12 phage titer/mL | ligand binding, from the binding curves (EGFR): greatly attenuated; ligand binding, from the binding curves (Her-3 [1]; T47D cells, phage-displayed ligand): greatly attenuated |
